The RNAGym collection of RNA variant scans (doi:10.7554/elife.80360)

B1: HDV Ribozyme (parent)
chain: GGCCGGCAUGGUCCCAGCCUCCUCGCUGGCGCCGGCUGGGCAACAUUCCGAGGGGACCGUCCCCUCGGUAAUGGCGAAUGGGACCCA

Variants of: B1
Test: self-cleavage, relative activity (ratio to wild type); higher = more cleavage; co-transcriptional

Going from GGCCGGCAUGGCCCCAGCCUCCUCGCUGGCGCCGGCUGGGCAACAUUCCGAGGGUACCGUCCCCUCGGUAAUGGCGAAUGGGACCCA [U12C G55U] to GGCCGGCAUGGCCCCAGCCUCCUCGCUGGCGCCGGCUGGGCAACAUUCCGAGGGGACCGUCCCCUCGGUAAUGGCGAAUGGGACCGA [U12C C86G], the self-cleavage falls from 0.59 to 0.104.

First: GGCCGGCAUGGCCCCAGCCUCCUCGCUGGCGCCGGCUGGGGAACAUUCCGAGGGGACCGUCCCCUCGGUAAUGGCGAAUGGGACCCA [U12C C41G]
Second: GGCCGGCAUGGCCCCAGCCUCCUCGCUGGCGCCGGCUGGGCAACAUUCCGAGGGGACCGUCGCCUCGGUAAUGGCGAAUGGGACCCA [U12C C62G]
The self-cleavage of the first is higher: 0.289 for the first, 0.123 for the second.

Compared with GGCCGGCAUGGCCCCAGCCUCCUCGCUGCCGCCGGCUGGGCAACAUUCCGAGGGGACCGUCCCCUCGGUAAUGGCGAAUGGGACCCA [U12C G29C], GGCCGGCAUGGCCCCAGCCUCCUCGCUGACGCCGGCUGGGCAACAUUCCGAGGGGACCGUCCCCUCGGUAAUGGCGAAUGGGACCCA [U12C G29A] is lower in self-cleavage: 0.0462 for the first, 0.0415 for the second.

Compared with GGCCGGCAUGGCCCCAGCCUCCUCGCUGUCGCCGGCUGGGCAACAUUCCGAGGGGACCGUCCCCUCGGUAAUGGCGAAUGGGACCCA [U12C G29U], GGCCGGCAUGGCCCCAGCCUCCUCGCUGGCGCCGUCUGGGCAACAUUCCGAGGGGACCGUCCCCUCGGUAAUGGCGAAUGGGACCCA [U12C G35U] is lower in self-cleavage: 0.0346 for the first, 0 for the second.

Going from GGCCGGCAUGGCCCCAGCCUCCUCGCUGGCGCCGACUGGGCAACAUUCCGAGGGGACCGUCCCCUCGGUAAUGGCGAAUGGGACCCA [U12C G35A] to GGCCGGCAUGGCCCCAGCCUCCUCGCUGGCGCCAGCUGGGCAACAUUCCGAGGGGACCGUCCCCUCGGUAAUGGCGAAUGGGACCCA [U12C G34A], the self-cleavage falls from 0.0723 to 0.0692.

Going from GGCCGGCAUGGCCCCAGCCUCCUCGCUGGCGCCUGCUGGGCAACAUUCCGAGGGGACCGUCCCCUCGGUAAUGGCGAAUGGGACCCA [U12C G34U] to GGCCGGCAUGGCCCCAGCCUCCUCGCUGGCGCCGGCUGGGCAACAUUCCGAGGGGACCGUCCGCUCGGUAAUGGCGAAUGGGACCCA [U12C C63G], the self-cleavage rises from 0.0396 to 0.123.

First: GGCCGGCAUGGCCCCAGCCUACUCGCUGGCGCCGGCUGGGCAACAUUCCGAGGGGACCGUCCCCUCGGUAAUGGCGAAUGGGACCCA [U12C C21A]
Second: GGCCGGCAUGGCCCCAGCCUUCUCGCUGGCGCCGGCUGGGCAACAUUCCGAGGGGACCGUCCCCUCGGUAAUGGCGAAUGGGACCCA [U12C C21U]
The self-cleavage of the first is higher: 0.0573 for the first, 0 for the second.

Going from GGCCGGCAUGGCCCCAGCCUGCUCGCUGGCGCCGGCUGGGCAACAUUCCGAGGGGACCGUCCCCUCGGUAAUGGCGAAUGGGACCCA [U12C C21G] to GGCCGGCAUGGCCCCAGUCUCCUCGCUGGCGCCGGCUGGGCAACAUUCCGAGGGGACCGUCCCCUCGGUAAUGGCGAAUGGGACCCA [U12C C18U], the self-cleavage rises from 0.0791 to 0.111.

Compared with GGCCGGCAUGGCCCCAGCCUCAUCGCUGGCGCCGGCUGGGCAACAUUCCGAGGGGACCGUCCCCUCGGUAAUGGCGAAUGGGACCCA [U12C C22A], GGCCGGCAUGGCCCCAGCCUCUUCGCUGGCGCCGGCUGGGCAACAUUCCGAGGGGACCGUCCCCUCGGUAAUGGCGAAUGGGACCCA [U12C C22U] is higher in self-cleavage: 0.115 for the first, 0.231 for the second.

Going from GGCCGGCAUGGCCCCAGCCUCCUCGCUGGCGCCGGCUGGGCAACAUUCCGAGGGGACCGUCCCUUCGGUAAUGGCGAAUGGGACCCA [U12C C64U] to GGCCGGCAUGGCCCCAGCCUCCUCGCUGGCGCCGGCUGGGCAACAUUCCGAGGGGACCGUCCCAUCGGUAAUGGCGAAUGGGACCCA [U12C C64A], the self-cleavage falls from 0.665 to 0.344.

Compared with GGCCGGCAUGGCCCCAGCCUCCUCGCUGGCGCCGGCUGGGCAACAUUCCGAGUGGACCGUCCCCUCGGUAAUGGCGAAUGGGACCCA [U12C G53U], GGCCGGCAUGGCCCCAGCGUCCUCGCUGGCGCCGGCUGGGCAACAUUCCGAGGGGACCGUCCCCUCGGUAAUGGCGAAUGGGACCCA [U12C C19G] is lower in self-cleavage: 0.427 for the first, 0.0723 for the second.

Compared with GGCCGGCAUGGCCCCAGCUUCCUCGCUGGCGCCGGCUGGGCAACAUUCCGAGGGGACCGUCCCCUCGGUAAUGGCGAAUGGGACCCA [U12C C19U], GGCCGGCAUGGCCCCAGCCUCCUCGCUGGCGCCGGCUGGGCAACAUUCCGAGGUGACCGUCCCCUCGGUAAUGGCGAAUGGGACCCA [U12C G54U] is higher in self-cleavage: 0.0415 for the first, 0.415 for the second.

Going from GGCCGGCAUGGCCCCACCCUCCUCGCUGGCGCCGGCUGGGCAACAUUCCGAGGGGACCGUCCCCUCGGUAAUGGCGAAUGGGACCCA [U12C G17C] to GGCCGGCAUGGCCCCAGCCUCCUCGCUGGCGCCGGCUGGGCAACAUUCCGAGGGGACCGUCCCCUCGGUAAUGGCGAAUGGGAACCA [U12C C84A], the self-cleavage rises from 0.145 to 0.222.

Going from GGCCGGCAUGGCCCCAGCCUCCUCGCUGGCGCCGGCUGGGCAACAUUCCGAGGGGACCGUCCCCUCGGUAAUGGCGAAUGGGAUCCA [U12C C84U] to GGCCGGCAUGGCCCCAGCCUCCUGGCUGGCGCCGGCUGGGCAACAUUCCGAGGGGACCGUCCCCUCGGUAAUGGCGAAUGGGACCCA [U12C C24G], the self-cleavage falls from 0.208 to 0.119.

Going from GGCCGGCAUGGCCCCAGCCUCCUAGCUGGCGCCGGCUGGGCAACAUUCCGAGGGGACCGUCCCCUCGGUAAUGGCGAAUGGGACCCA [U12C C24A] to GGCCGGCAUGGCCCCAGCCUCCUUGCUGGCGCCGGCUGGGCAACAUUCCGAGGGGACCGUCCCCUCGGUAAUGGCGAAUGGGACCCA [U12C C24U], the self-cleavage falls from 0.232 to 0.0791.

Going from GGCCGGCAUGGCCCCAGCCUCCUCGCUGGCGCCGGCUGGGCAACAUUCCGAGGGGACCUUCCCCUCGGUAAUGGCGAAUGGGACCCA [U12C G59U] to GGCCGGCAUGGCCCCAGCCUCCUCGCUGGCGCCGGCUGGGCAACAUUCCGAGGGGACCCUCCCCUCGGUAAUGGCGAAUGGGACCCA [U12C G59C], the self-cleavage rises from 0.135 to 0.415.
